Our source for the ECL signal values is patent publication US20120058906A1 (published 2012).

The target in experiment [1] is T1, rHuman IGF-1 sR (IGF-1 sR), CF (R&D Systems Cat#391-GR) (human, UniProt P08069 31-932).
T1 construct: Purchased soluble receptor; also called insulin-like growth factor-1 soluble receptor; IGF-R1
The experiment is described as follows: MSD ECL multi-spot plate, antigen immobilized; Fab 8 nM; blank spot 479.

Experiment [2] addresses T2, Recombinant Human DLL4 (R&D Systems Cat#1506-D4/CF) (human, UniProt Q9NR61 27-524).
T2 construct: Purchased recombinant protein; also called delta-like protein 4
The experiment is described as above.

For experiment [3], the target named is T3, rHuman ErbB2/Fc Chimera, CF (R&D Systems Cat#1129-ER) (human, UniProt P04626 23-652).
T3 construct: Purchased Fc chimera; also called HER2/neu; not shown: Fc portion of the purchased chimera
The experiment is described as above.

Experiment [4] concerns the target T4, rHuman CD44/Fc Chimera, CF (R&D Systems Cat#3660-CD) (human, UniProt P16070 21-220).
T4 construct: Purchased Fc chimera; not shown: Fc portion of the purchased chimera
Described as above.

For experiment [5], the target named is T5, rHuman Notch-1/Fc Chimera, CF (R&D Systems Cat#3647-TK) (human, UniProt P46531 19-526).
T5 construct: Purchased Fc chimera; not shown: Fc portion of the purchased chimera
Described as above.

For experiment [6], the target named is T6, rHuman Erythropoietin R/Fc Chimera, CF (R&D Systems Cat#963-ER) (human, UniProt P19235 25-250).
T6 construct: Purchased Fc chimera; also called EPO R/Fc; Epo R; not shown: Fc portion of the purchased chimera
T6 sequence: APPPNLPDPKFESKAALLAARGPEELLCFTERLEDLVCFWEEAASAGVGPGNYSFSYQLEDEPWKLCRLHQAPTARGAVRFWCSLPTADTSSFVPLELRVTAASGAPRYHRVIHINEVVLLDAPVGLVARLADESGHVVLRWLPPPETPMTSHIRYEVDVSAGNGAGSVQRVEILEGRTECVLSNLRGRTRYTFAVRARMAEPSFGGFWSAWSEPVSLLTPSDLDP
The description is as above.

The target in experiment [7] is T7, rHuman IGF-1 sR (insulin-like growth factor-1 soluble receptor), CF (R&D Systems Cat#391-GR) (human, UniProt P08069 31-932).
T7 construct: Bought soluble receptor; also called IGF-R1
Kind of experiment: MSD ECL titration, Fab 595.8 nM, blank 285.

Experiment [8] has as its target T8, rHuman CD44/Fc Chimera, CF (R&D Systems Cat#3660-CD) (human, UniProt P16070 21-220).
T8 construct: Bought Fc chimera; Fc part of the bought chimera not given
Kind of experiment: MSD ECL titration, Fab 595.8 nM, blank 285.

The target in experiment [9] is T9, rHuman Erythropoietin R/Fc Chimera, CF (R&D Systems Cat#963-ER) (human, UniProt P19235 25-250).
T9 construct: Bought Fc chimera; also called EPO R/Fc; EPOR; Fc part of the bought chimera not given
T9 sequence: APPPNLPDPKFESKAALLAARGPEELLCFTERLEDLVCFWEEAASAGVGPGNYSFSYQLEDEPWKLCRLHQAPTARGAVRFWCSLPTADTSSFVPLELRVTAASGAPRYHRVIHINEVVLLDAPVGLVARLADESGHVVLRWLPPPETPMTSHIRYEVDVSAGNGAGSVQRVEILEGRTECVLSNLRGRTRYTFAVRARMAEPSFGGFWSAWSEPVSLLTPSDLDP
The experiment is described as follows: MSD ECL titration, Fab 595.8 nM, blank 285.

Experiment [10] concerns the target T10, rHuman P-Cadherin/Fc Chimera, CF (R&D Systems Cat#861-PC) (human, UniProt P22223 108-654).
T10 construct: Bought Fc chimera; Fc part of the bought chimera not given
Kind of experiment: MSD ECL titration, Fab 595.8 nM, blank 285.

In experiment [11] the target is T11, rHuman Notch-1/Fc Chimera, CF (R&D Systems Cat#3647-TK) (human, UniProt P46531 19-526).
T11 construct: Bought Fc chimera; not shown: Fc of the bought chimera
Kind of experiment: ECL (MSD multi-spot), antigen on plate, Fab 0.4 nM.

In experiment [12] the target is T12, rHuman P-Cadherin/Fc Chimera, CF (R&D Systems Cat#861-PC) (human, UniProt P22223 108-654).
T12 construct: Bought Fc chimera; also called CDH3; not shown: Fc of the bought chimera
The experiment is described as follows: ECL (MSD multi-spot), antigen on plate, Fab 0.4 nM.

In experiment [13] the target is T13, rHuman Erythropoietin R/Fc Chimera, CF (R&D Systems Cat#963-ER) (human, UniProt P19235 25-250).
T13 construct: Bought Fc chimera; also called EPO R/Fc; Epo R; not shown: Fc of the bought chimera
T13 sequence: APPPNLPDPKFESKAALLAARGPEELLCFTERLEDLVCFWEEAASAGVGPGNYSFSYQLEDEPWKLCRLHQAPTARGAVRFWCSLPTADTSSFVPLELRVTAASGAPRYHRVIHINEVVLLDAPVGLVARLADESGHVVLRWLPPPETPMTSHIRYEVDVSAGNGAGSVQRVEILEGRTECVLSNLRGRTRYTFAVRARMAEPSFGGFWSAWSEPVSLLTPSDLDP
Kind of experiment: ECL (MSD multi-spot), antigen on plate, Fab 0.4 nM.

The target in experiment [14] is T14, rHuman EGF R/Fc Chimera, CF (R&D Systems Cat#344-ER) (human, UniProt P00533 25-645).
T14 construct: Bought Fc chimera; also called ErbB-1; not shown: Fc of the bought chimera
The experiment is described as follows: ECL (MSD multi-spot), antigen on plate, Fab 0.4 nM.

Experiment [15] addresses T15, rHuman CD44/Fc Chimera, CF (R&D Systems Cat#3660-CD) (human, UniProt P16070 21-220).
T15 construct: Bought Fc chimera; not shown: Fc of the bought chimera
Kind of experiment: ECL (MSD multi-spot), antigen on plate, Fab 0.4 nM.

Experiment [16] addresses T16, rHuman HGF R/c-MET/Fc Chimera, CF (R&D Systems Cat#358-MT/CF) (human, UniProt P08581 25-932).
T16 construct: Bought Fc chimera; also called HGF R/Fc; not shown: Fc of the bought chimera
Kind of experiment: ECL (MSD multi-spot), antigen on plate, Fab 0.4 nM.

Experiment [17] has as its target T17, rHuman ErbB2/Fc Chimera, CF (R&D Systems Cat#1129-ER) (human, UniProt P04626 23-652).
T17 construct: Bought Fc chimera; also called HER2/neu; not shown: Fc of the bought chimera
The experiment is described as follows: ECL (MSD multi-spot), antigen on plate, Fab 0.4 nM.

Experiment [18] deals with T18, rHuman IGF-1 sR (insulin-like growth factor-1 soluble receptor), CF (R&D Systems Cat#391-GR) (human, UniProt P08069 31-932).
T18 construct: Bought soluble receptor; also called IGF-R1
The experiment is described as follows: ECL (MSD multi-spot), antigen on plate, Fab 0.4 nM.

For experiment [19], the target named is T19, Recombinant Human DLL4 (R&D Systems Cat#1506-D4/CF) (human, UniProt Q9NR61 27-524).
T19 construct: Bought recombinant protein; also called delta-like protein 4
Kind of experiment: ECL (MSD multi-spot), antigen on plate, Fab 0.4 nM.
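Note: blank spot per well as comparator with Hit at signal to blank ratio of 4 or more.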

B1: Fab VH5-51_IGHD5-18*01>3_IGHJ4*01_G100R & V3-4_IGLJ1*01 (Fab, V domains shown)
VH: EVQLVQSGAEVKKPGESLKISCKGSGYSFTSYWIGWVRQMPGKGLEWMGIIYPGDSDTRYSPSFQGQVTISADKSISTAYLQWSSLKASDTAMYYCARRRYSYGYDYFDYWGQGTLVTVSS
VL: QTVVTQEPSFSVSPGGTVTLTCGLSSGSVSTSYYPSWYQQTPGQAPRTLIYSTNTRSSGVPDRFSGSILGNKAALTITGAQADDESDYYCVLYMGSGISYVFGTGTKVTVL
notes: It was expressed as a Fab: CH1 with tags from Plasmid A and lambda CL from Plasmid E; also called Fab No. 23
As for B1, the ECL signal in experiment [1] worked out at 1110 ECL signal; in experiment [2], 5470 ECL signal; in [3], 1330 ECL signal; in [4] it was 786 ECL signal; in experiment [5], 916 ECL signal; in [6], 911 ECL signal.

B2: Fab VH1-46_IGHD6-6*01_IGHJ1*01 & L6_IGKJ1*01 (Fab, V domains shown)
VH: QVQLVQSGAEVKKPGASVKVSCKASGYTFTSYYMHWVRQAPGQGLEWMGIINPSGGSTSYAQKFQGRVTMTRDTSTSTVYMELSSLRSEDTAVYYCAREEYSSSSAEYFQHWGQGTLVTVSS
VL: not shown
notes: Expressed in E. coli as Fab: heavy chain with CH1 plus Flag and His tags from Plasmid A, kappa light chain constant region from Plasmid C; also called Fab No. 1
Take B2: the ECL signal in experiment [7] stood at 335; in [8], 372; in experiment [9], 378; in [10], 617.

B3: Fab VH1-46_IGHD6-6*01_IGHJ1*01_S102A_S103P_S104F & L6_IGKJ1*01_S30N (Fab, V domains shown)
VH: QVQLVQSGAEVKKPGASVKVSCKASGYTFTSYYMHWVRQAPGQGLEWMGIINPSGGSTSYAQKFQGRVTMTRDTSTSTVYMELSSLRSEDTAVYYCAREEYAPFSAEYFQHWGQGTLVTVSS
VL: EIVLTQSPATLSLSPGERATLSCRASQSVNSYLAWYQQKPGQAPRLLIYDASNRATGIPARFSGSGSGTDFTLTISSLEPEDFAVYYCQQRSNWPPWTFGQGTKVEIKR
notes: Fab
Regarding B3, the ECL signal stood at 197 ECL signal in experiment [11]; 111 ECL signal in [12]; 224 ECL signal in experiment [13]; 173 ECL signal in experiment [14]; 176 ECL signal in experiment [15]; 120 ECL signal in [16]. In addition, the ECL signal in experiment [17] was 203 ECL signal; in [18], 141 ECL signal; in experiment [19] it was 1040 ECL signal.
